T1: pep11** fused to the GAL4 DNA binding domain
T1 construct: also called pep11**-GAL4-BD
T1 chain: KEKEEYNSNCSCIACIGLI

T2: wildtype HPV16 E6 fused to the VP16 transcriptional activation domain, P03126
T2 chain: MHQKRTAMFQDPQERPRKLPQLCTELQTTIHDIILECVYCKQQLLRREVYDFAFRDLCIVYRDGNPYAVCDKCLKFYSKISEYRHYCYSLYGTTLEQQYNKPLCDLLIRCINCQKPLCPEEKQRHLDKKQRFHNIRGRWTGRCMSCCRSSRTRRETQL

T3: E6APpep fused to the GAL4 DNA binding domain (human)
T3 construct: The functional row used hrGFP-E6APpep; also called E6APpep-GAL4-BD
T3 chain: IPESSELTLQELLGEERR

B1: wildtype HPV16 E6 fused to the VP16 transcriptional activation domain (natural protein)
chain: T2 chain
notes: source: HeLa, transfected (vector pACT), mammalian two-hybrid fusion

Target: T1, pep11** fused to the GAL4 DNA binding …
Test: two-hybrid
Conditions: partners not purified

Molecule | fold increase of luciferase activity over control-transfected cells [fold]
B1 | ~19

The molecules below were run against E6APpep fused to the GAL4 DNA binding domain (assay: mammalian two-hybrid). Conditions: HeLa cells; read off a plot.

Molecule | percent of parent [%]
wildtype HPV16 E6 fused to the VP16 transcriptional activation domain (from UniProt P03126) I23Q | 66
wildtype HPV16 E6 fused to the VP16 transcriptional activation domain (from UniProt P03126) V53E | 45
wildtype HPV16 E6 fused to the VP16 transcriptional activation domain (from UniProt P03126) H126A | 80
wildtype HPV16 E6 fused to the VP16 transcriptional activation domain (from UniProt P03126) L50E | 42
wildtype HPV16 E6 fused to the VP16 transcriptional activation domain (from UniProt P03126) K122A | 110
wildtype HPV16 E6 fused to the VP16 transcriptional activation domain (from UniProt P03126) D120A | 120
wildtype HPV16 E6 fused to the VP16 transcriptional activation domain (from UniProt P03126) L67A | 48
wildtype HPV16 E6 fused to the VP16 transcriptional activation domain (from UniProt P03126) H24R | 79
wildtype HPV16 E6 fused to the VP16 transcriptional activation domain (from UniProt P03126) S74R | 70
wildtype HPV16 E6 fused to the VP16 transcriptional activation domain (from UniProt P03126) H126E | 63
wildtype HPV16 E6 fused to the VP16 transcriptional activation domain (from UniProt P03126) V62A | 63
wildtype HPV16 E6 fused to the VP16 transcriptional activation domain (from UniProt P03126) R39A | 78
wildtype HPV16 E6 fused to the VP16 transcriptional activation domain (from UniProt P03126) H24Q | 87
wildtype HPV16 E6 fused to the VP16 transcriptional activation domain (from UniProt P03126) R129A | 290
wildtype HPV16 E6 fused to the VP16 transcriptional activation domain (from UniProt P03126) K34E | 74
wildtype HPV16 E6 fused to the VP16 transcriptional activation domain (from UniProt P03126) D64H | 64
wildtype HPV16 E6 fused to the VP16 transcriptional activation domain (from UniProt P03126) R129E | 110
wildtype HPV16 E6 fused to the VP16 transcriptional activation domain (from UniProt P03126) I128E | 48
wildtype HPV16 E6 fused to the VP16 transcriptional activation domain (from UniProt P03126) K108A | 93
wildtype HPV16 E6 fused to the VP16 transcriptional activation domain (from UniProt P03126) Q35A | 110
wildtype HPV16 E6 fused to the VP16 transcriptional activation domain (from UniProt P03126) R40A | 110

Molecule | percent of parent [%]
wildtype HPV16 E6 fused to the VP16 transcriptional activation domain (from UniProt P03126) T133A | 150
wildtype HPV16 E6 fused to the VP16 transcriptional activation domain (from UniProt P03126) L38E | 170
wildtype HPV16 E6 fused to the VP16 transcriptional activation domain (from UniProt P03126) R55A | 64
wildtype HPV16 E6 fused to the VP16 transcriptional activation domain (from UniProt P03126) Y70A | 99
wildtype HPV16 E6 fused to the VP16 transcriptional activation domain (from UniProt P03126) L119E | 88
wildtype HPV16 E6 fused to the VP16 transcriptional activation domain (from UniProt P03126) C140E | 140
wildtype HPV16 E6 fused to the VP16 transcriptional activation domain (from UniProt P03126) L100A | 130
wildtype HPV16 E6 fused to the VP16 transcriptional activation domain (from UniProt P03126) K121A | 120
wildtype HPV16 E6 fused to the VP16 transcriptional activation domain (from UniProt P03126) R48A | 98
wildtype HPV16 E6 fused to the VP16 transcriptional activation domain (from UniProt P03126) D44R | 67
wildtype HPV16 E6 fused to the VP16 transcriptional activation domain (from UniProt P03126) D64A | 64
wildtype HPV16 E6 fused to the VP16 transcriptional activation domain (from UniProt P03126) R102E | 43
wildtype HPV16 E6 fused to the VP16 transcriptional activation domain (from UniProt P03126) Q107A | 79
wildtype HPV16 E6 fused to the VP16 transcriptional activation domain (from UniProt P03126) I128A | 52
wildtype HPV16 E6 fused to the VP16 transcriptional activation domain (from UniProt P03126) Y32A | 53
wildtype HPV16 E6 fused to the VP16 transcriptional activation domain (from UniProt P03126) Q35R | 120
wildtype HPV16 E6 fused to the VP16 transcriptional activation domain (from UniProt P03126) C51F | 110
wildtype HPV16 E6 fused to the VP16 transcriptional activation domain (from UniProt P03126) N105A | 80
wildtype HPV16 E6 fused to the VP16 transcriptional activation domain (from UniProt P03126) D120K | 100
wildtype HPV16 E6 fused to the VP16 transcriptional activation domain (from UniProt P03126) R131E | 41

The molecules below were run against pep11** fused to the GAL4 DNA binding domain (assay: mammalian two-hybrid). Conditions: HeLa cells; read off a plot.

Molecule | percent of parent [%]
wildtype HPV16 E6 fused to the VP16 transcriptional activation domain (from UniProt P03126) I23Q | 70
wildtype HPV16 E6 fused to the VP16 transcriptional activation domain (from UniProt P03126) V53E | 7
wildtype HPV16 E6 fused to the VP16 transcriptional activation domain (from UniProt P03126) H126A | 110
wildtype HPV16 E6 fused to the VP16 transcriptional activation domain (from UniProt P03126) L50E | 5
wildtype HPV16 E6 fused to the VP16 transcriptional activation domain (from UniProt P03126) K122A | 170
wildtype HPV16 E6 fused to the VP16 transcriptional activation domain (from UniProt P03126) D120A | 100
wildtype HPV16 E6 fused to the VP16 transcriptional activation domain (from UniProt P03126) L67A | 46
wildtype HPV16 E6 fused to the VP16 transcriptional activation domain (from UniProt P03126) H24R | 57
wildtype HPV16 E6 fused to the VP16 transcriptional activation domain (from UniProt P03126) S74R | 64
wildtype HPV16 E6 fused to the VP16 transcriptional activation domain (from UniProt P03126) H126E | 98
wildtype HPV16 E6 fused to the VP16 transcriptional activation domain (from UniProt P03126) V62A | 61
wildtype HPV16 E6 fused to the VP16 transcriptional activation domain (from UniProt P03126) R39A | 89
wildtype HPV16 E6 fused to the VP16 transcriptional activation domain (from UniProt P03126) H24Q | 74
wildtype HPV16 E6 fused to the VP16 transcriptional activation domain (from UniProt P03126) R129A | 190
wildtype HPV16 E6 fused to the VP16 transcriptional activation domain (from UniProt P03126) K34E | 120
wildtype HPV16 E6 fused to the VP16 transcriptional activation domain (from UniProt P03126) D64H | 57
wildtype HPV16 E6 fused to the VP16 transcriptional activation domain (from UniProt P03126) R129E | 120
wildtype HPV16 E6 fused to the VP16 transcriptional activation domain (from UniProt P03126) I128E | 10
wildtype HPV16 E6 fused to the VP16 transcriptional activation domain (from UniProt P03126) K108A | 140
wildtype HPV16 E6 fused to the VP16 transcriptional activation domain (from UniProt P03126) Q35A | 100
wildtype HPV16 E6 fused to the VP16 transcriptional activation domain (from UniProt P03126) R40A | 120

Molecule | percent of parent [%]
wildtype HPV16 E6 fused to the VP16 transcriptional activation domain (from UniProt P03126) T133A | 130
wildtype HPV16 E6 fused to the VP16 transcriptional activation domain (from UniProt P03126) L38E | 140
wildtype HPV16 E6 fused to the VP16 transcriptional activation domain (from UniProt P03126) R55A | 130
wildtype HPV16 E6 fused to the VP16 transcriptional activation domain (from UniProt P03126) Y70A | 57
wildtype HPV16 E6 fused to the VP16 transcriptional activation domain (from UniProt P03126) L119E | 100
wildtype HPV16 E6 fused to the VP16 transcriptional activation domain (from UniProt P03126) C140E | 150
wildtype HPV16 E6 fused to the VP16 transcriptional activation domain (from UniProt P03126) L100A | 130
wildtype HPV16 E6 fused to the VP16 transcriptional activation domain (from UniProt P03126) K121A | 170
wildtype HPV16 E6 fused to the VP16 transcriptional activation domain (from UniProt P03126) R48A | 110
wildtype HPV16 E6 fused to the VP16 transcriptional activation domain (from UniProt P03126) D44R | 45
wildtype HPV16 E6 fused to the VP16 transcriptional activation domain (from UniProt P03126) D64A | 60
wildtype HPV16 E6 fused to the VP16 transcriptional activation domain (from UniProt P03126) R102E | 10
wildtype HPV16 E6 fused to the VP16 transcriptional activation domain (from UniProt P03126) Q107A | 100
wildtype HPV16 E6 fused to the VP16 transcriptional activation domain (from UniProt P03126) I128A | 17
wildtype HPV16 E6 fused to the VP16 transcriptional activation domain (from UniProt P03126) Y32A | 7
wildtype HPV16 E6 fused to the VP16 transcriptional activation domain (from UniProt P03126) Q35R | 100
wildtype HPV16 E6 fused to the VP16 transcriptional activation domain (from UniProt P03126) C51F | 110
wildtype HPV16 E6 fused to the VP16 transcriptional activation domain (from UniProt P03126) N105A | 110
wildtype HPV16 E6 fused to the VP16 transcriptional activation domain (from UniProt P03126) D120K | 91
wildtype HPV16 E6 fused to the VP16 transcriptional activation domain (from UniProt P03126) R131E | 49

Target: E6APpep fused to the GAL4 DNA binding domain
Test: mammalian two-hybrid
Conditions: HeLa cells; read off a plot
Remark: another data set of the same source

Molecule | percent of parent [%]
wildtype HPV16 E6 fused to the VP16 transcriptional activation domain (from UniProt P03126) R55A | 64
wildtype HPV16 E6 fused to the VP16 transcriptional activation domain (from UniProt P03126) Y70A | 99

Target: pep11** fused to the GAL4 DNA binding domain
Test: mammalian two-hybrid
Conditions: HeLa cells; read off a plot
Remark: another data set of the same source

Molecule | percent of parent [%]
wildtype HPV16 E6 fused to the VP16 transcriptional activation domain (from UniProt P03126) R55A | 130
wildtype HPV16 E6 fused to the VP16 transcriptional activation domain (from UniProt P03126) Y70A | 57

Target: T2, wildtype HPV16 E6 fused to the VP16 …
Test: mammalian two-hybrid
Conditions: chain shown with the change; HeLa cells; parent: est. 19; read off a plot

Molecule | response [RLA]
KEKEEYNSNSSSIASIGLI [pep11** fused to the GAL4 DNA binding domain pep11**m] | 1

Target: T3, E6APpep fused to the GAL4 DNA binding …
Test: two-hybrid; mammalian two-hybrid (CheckMate) in HeLa cells; peptides fused to GAL4-BD (pBIND), E6 proteins fused to VP16-AD (pACT); luciferase reporter pG5luc, normalized for pCMV-Gal
Conditions: partners not purified

Molecule | fold increase of luciferase activity over control-transfected cells [fold]
B1 | ~3

Reference: article PMC4226571, “The E6AP Binding Pocket of the HPV16 E6 Oncoprotein Provides a Docking Site for a Small Inhibitory Peptide Unrelated to E6AP, Indicating Druggability of E6” (PLoS ONE, 2014)
